Consider 19 sequences from a protein production outcome set (Wang et al. 2014).

The data set can be described thus: label from the status in PepcDB records.
Turning to “METPYTDHLSPEDFEHVYEPAEDSFLLLDALEKDLEYLDRLQPSLCVELGSGSGVIITALAKKLAGFSLCLATDINPKACNATRRTATRNGARLDSIRCSLADALRPRSVDVLLFNPPYVVTSDEELQTQQFDSHSESSTDRNLVFSWAGGQDGRRVTDILLKQLDDILSPRGVLYLLLLRENKPEEIIKYLEGLQFRAVKFMERRIPGEHLCILKVTRYLASS”, the protein production result is on record as “failed”.

On to “MSMLKPSGLKAPTKILKPGSTALKTPTAVVAPVEKTISSEKASSTPSSETQEEFVDDFRVGERVWVNGNKPGFIQFLGETQFAPGQWAGIVLDEPIGKNDGSVAGVRYFQCEPLKGIFTRPSKLTRKV”, for which the protein production result is listed as “not failed”. “MQTNEHEHVIEVTDLRRVYGGGFEAVRGIDFSVRRGEVFALLGTNGAGKTSTVELLEGLAAPAGGRVRVLGHDPYTERAAVRPRTGVMLQEGGFPSELTVAETARMWAGCVSGARPPAEVLALVGLEAKSGTRVKQLSGGQRRRLDLALALLGDPEVLFLDEPSTGLDAEGRRDTWELVGALRDQGTTVLLTTHYLEEAEHLADRLAIMHDGRIAATGTPAEVTAAQPSHISFELPDGYFVGDLPPLAELGVSDHETDGRTVKLRTRELQRAATGLLVWAAQAAVELRRLDVRSASLEEAFLSIAKQVSARSDGTATDTTEKEYAA”: the protein production result is “failed”. The value for “MTKFYKFLISIIILALVCLIFFLAKSNILNLDSLKNLILSSGYFAPLIYIIAFALVPLTFFPDSVLAILGGSIFGLGGGFLYTSIGALIGGSISFFISRILGQSFVEKFENDKLKNIQELLKDNGFLMILLLRLIPLFPFDLISYGAGLTKISYKDFALGTLIGTIPGILVFVNLGAQWITFNKTSIYLSVSLLILFIIVSVFLKKIYINKHLAKEN” was “failed”; that for “MKNSENDYIQSLFQILPGLLTAFLVACLSKFLAIWLPSLGAATIAILLGIFLGNTFVRGANLNRGTKVAESKLLEFSVVLLGTTVTFQTIAQIGLQGVAFILIQMSLTIIFAYLIGKKLAFSDNMSLLMAGGNAVCGSSAIASIAPAIQADEEEKGQIITLVNLLGTVLMLTLPILSGILYGTNLLARSALIGGTLQSVGQVVASANMVNENAVQLAMLFKIMRIVLLVAVVYLFGRFKQSKTAESEAELVEVTKKSSALPWYVVGFFIACVFNSLIHFPVVISETAHFFSSWFEITALAAIGLRLDFKKFFQEGKRFLIYGLSVGTVQVVLAILLLALLQF” was “failed”; that for “MKYLAGIVTFNPNIERLDQNIRAIYPQVSHIYIVDNGSKNKEEISQLVADYNEEGHLTVDYLTENKGIAYALNCIGQFAVAQEFDWFLTLDQDSVVLGDLIDNYENYLHLPKVGMLSCLYQDMNRENLVMQEFDYKEIEECITSAALMKTSVFEETSGFAEEMFIDFVDSEMNYRLSEMGYKTYQVNFIGLLHEIGHSSRVKKFGHVFHVLNHSPFRKYYMIRNAIYIIKKYGKKKRYKYLVFMRNEFVRVLVAEEQKSKKIVAMIKGLKDGLLMKVDKYGKLEHHHHHH” was “not failed”. The entry for “MNSPFAAETLLFERSRPRPEALRVIYGFPNTYSVGITSLGYQLVWAQLASRADVAVSRLFTDVQEPLPRDPELVGFSFSWELDYGNLLVLLEQLGIPIWQRDRHDCHPLVFGGGPVLTANPEPFADFFDVILLGDAEPLLDPFLTTMAQVRTAARSQRLEALAHVPGIYVPSLYHVSYSHPTGPIQRIEPIKASVPPTVTKQVHRGHTLAASTVVTPLAAWENIYMVEVVRSCPELCRFCLASYLTLPFRTPSLETLIPAIERGLAVTDRLGLLGASITQHPEFPALIEHLGQPQFDHVRVSLASVRTNTVTESLAQLLSQRGSQSLTIAIETGSERLRQVINKKLETEEILAAASHAQAGGLKGLKFYGMVGLPTETDADVAATVDLFCQLKKTAPRLRLTLGCSTFVPKAHTPFQWWGVQPVAEKRLKFLKKELAKLGIEFRPESYNDSLIQALISRGDRRLAPLLEQVRHYGTSLGSYRRAFKERQGQLPDFEAYVNANWPEETVLPWQHLQSGLPTKTLENHLKRAIALEHHHHHH” is “failed”. The value for “MVSTIIISFFIIIIAVVILVLVATRSKSPSSGGRKKVKGRAVLMKEASRRLAQNPHDIEGLFIMGDIYYQDQDWEKAYTAYSALLDRMKPLEMNKQLDVAIRYGICALKTNRLPEAKKGFLLAETINPKNLDVSYNLGYIYYLEKDYEKAVKFFKRTLILEPNSFLATKYLGYTLQHLHKYTEALPALKKALDFKPDDKEVLFAMGECFYETEATDRCLKILNHLRVDPVFGPQASLYTGMIRAKADQLERAIEDFQIGLKHTGIPMDISNELKYRLAQAYIKTQEIGQALHLLKEIQSISPGYKDAATLIMRYQELNKNKNLQIYLMSGQSEFVALCRKIVARFYPKAKVKIVDISVLAAYTDIVAEIDTSRFSDTVIFRFFRSQGTVGELLLRELHARLKEVKGGTGICMSAGTFTEEAVRFSEGRPLDLYDKTRLSNVLNSLK” was “failed”; that for “MLQRFYETLSTLRARWTRFTESPMGAWVRTGLRWLFVGGIVAYLAYELTTIGWGEVARALPVTPWFYVLLLLMYGTLPLTEAVLYGTAWGAQYRDLLPVLFRKRVLNNDVLGYSGEAYFYLWARRETNLGTGTVLRTVKDNVVISSVASTSVAFGLLAVFFLTGQIELLRQYLPSEAYTLGAGVAVLIILVSAVVAFRRSILSLPSSLLGLFAAGHVARFVLNNGLQVTQWAVVIPEVSAGTWITLLALYIVIQQVPFVPSRGLVFMSAGVGLSGPLQIPEAPLASMLLAQSLLDRGLNFLVYTGTTAAEAVGDDVEELDDLSIPEEMG” was “failed”. Consider “MTYNKIMSAAESMEDGIEDMENNLESWGDDMNEYFGDEYEKAETISLDGIKNFFLKAEVGEVKIEISDRADEASYKIQRINPKYFDVEKKGDTISFEDNTPSKFFKNLGFNFKNNSPKIYISLPRNIVFNNFEIKSGVGELDIHDINVEKFNLSAGVGEVNIYDAKISKDAEIKAGVGEVNFKDSTVTNMDIKSGVGSFSFSGTALGKTSVKGGIGEVDLKINGSEKDYDFDVSAGLGEVIINGKKSKTFLADRQKSGSIAQNSITVKGGIGSISIRFKNLEHHHHHH”, for which the protein production entry is “failed”. The entry for “MVVRTWRSMQERYNLIGSKCKTCGTVYFPARSVCPECRRKGELEDYKLNGKGKVYTYSVVYAAPKDFEKQSPYVIGIVELEEGTKITSQIDCEPEEVKIGMPVEATFRKIREDGCDGVISYGYKFVPTEQLEHHHHHH” is “failed”; for “SDPDADRIGVAVRNNEGRMVLINGNEICSLLIYYSIMRRKELGDLHPDDYIVKTIVTTELIRDIAKKEHVSMFDCYTGFKWIAAVIRENEGRRRYIGGGEESYGFLWEDFIRDKSSVSACALFCEMAAWALDRGMSVYRLIRSIYLEYGLYYE” it is “failed”. The value for “MVNLGAMLFRGRGVKLSQQFAVIGLGRFGRGVCETLHGMGYEVLGSDNQERLVNQVLQDHIVDHAIQLDATDPQALKEAGIFEFETVIVAIGNHLDASIITTLNLKEAGVPKVIAKASSEVHKKLLERVGADRVVFPEYEAGCELARSLTRPAILDCLNLDPQKSIVEVKVPEAFHGRTVAEVELRSRYGLNLIALRFDDKFEINPSPSQKLHQGDIMVVIGDNNDIERFLRSQHVH” was “failed”. The value for “MKPVKVGICGLGTVGGGTFNVLQRNAEEIARRAGRGIEVAQIAVRTPNPNCQIGSTPTTSDVFAVATNPEIDIVVELIGGYTLARELVLKAIENGKHVVTANKALIAVHGNEIFAKAREKGVIVAFEAAVAGGIPVIKAIREGLSANRINWVAGIINGTGNFILTEMREKGRTFPDVLAEAQALGYAEVDPTFDVEGIDAAHKLTILASIAFGIPLQFDKAYTEGITKLTTADVNYAEALGYRIKHLGVARSTAQGIELRVHPTLIPADRLIANVNGVMNAVMVNGDASGSTLFYGAGAGMEPTASSVVADLVDVVRAMTSDPENRVPHLAFQPDSLSAHPILPIEACESAYYLRIQAKDHPGVLAQVASILSERGINIESIMQKEVEEHDGLVPMILLTHRVVEQRINDAIQALEALQDVVGPVVRIRVEHLN” was “not failed”; that for “MLSYDIEVLKIINDEDNISQRRLAEMLNISLGKINSLLKELLTKEYIVKIDIDKRNVKYELTEAGIALLENSLDKVKSTKLSIHKHKFHKVKQAVILGAGGKGDFGKPAGFLELEEFRIIDRIIDILKSNGIEKIVIVNGYKKEYYEELAEKDSTIFCVTNSNYKWTGTMSSLALAKEYIDDDFILVENDLVFESRAVEQIIKNDNRDCVLITNESGSGDEAFVEIRDGYLFKMSKDVHQFNKIDGEMIGISKISYKLFKMMLEEFKHNINPYMNYEYTMLDVARNYKVGYEKINDLVWGEIDNKDQYEKVKKHIIPMIRRKEMQYKIDQVKSAIVNGLKVSEEEVKEIVPVGGMTNKNYKAFVNDKAYIVRIPGLGTSSMINRRDEMINSKLAADEGIDAKILFFDEESGVKIAELIEGAETLNPATAKKKENMELVVGALRTLHNSEIKMENRFNVFEKIEDYESLVKKVSGTLFEDYYEIKTRVLKLEKVLEDNGMEIKPCHNDTVPENFVKDINERMYLIDWEYSGLNDPMWDLAAHSIECDFSEDDEELFLNLYFNNLIEDKHKIRILVYKICQDFLWSIWTILKEAQGDDFGTYGIDRYNRGKKNLELLDKILMGQ” was “failed”. With “MDKASRFDRMVKEKKNDELGLFEKYEETLAEIRKRIIKYKAKTVVDMGCGTGNLCGELSKEIEALGIDKSLEMLEGAKRKYKHIKFKIGSFSDKPFIGKWAGVVVTTYAFHGLNSEEKKEAIKNMIGYLKDDGRIIIGDYMFKNKAEKEECRNKLLSKKRQDLWEVIDGRYYTDLEELKDYVKSLGFKIISEHIVNFTWIVEIYK”, the protein production result was “failed”. The value for “MKEKEYLFSLDMKVRDYECDLQGVVNNSNYQRYMEHTRHEFWESLGDNFGQMHEKGLDAFVYKVTITFKQSLRSGDRFRSCLTCHKKGPKLIFMQDIIREDGVMAARGEVEVVAVQDGVLTRGEYFDVLMKDILSKTTKLEHHHHHH” was “not failed”; that for “MSTSDPSAERPRDNFIYDIIDEDLEHGTYDGRVVTRFPPEPNGYLHIGHAKSIVLNFGIKHDYADRADTRCHLRFDDTNPDTESTEYVESIKEAVQWLGYDWEEHEYHASDYFEQFYQYAVTLIEQGDAYVDSLSEEEIREYRGTVDEPGTPSPYRDRSVEENLELFRKMRDGEFDDGEHVLRAKIDMSSPHMIMRDPLLFRIKHAHHYRRGDEWCIYPMYDYAHPLEDAIENITHSLCTLEFDNNRRVYDWVMEHCLDENELPSRPRQYEFNRLNLGYTVMSKTKLRHLIEEDLVGGWDDPRLPTISGLRRRGVPPSAIRSFCRTVGVTRSQSRVQIGHFEHALRDDLNAKAPRVMAVLDPLKVVATNVDADAVDWIDANHWPRDIDKDETRPVPFTREFYIERDDFREDPPEDFIRLAPGREVRLRHAYFFTCEEVVRDEDGVVTELRGTIDPETRDSTAPDGRSPEGTLHWVSAAHGLPFEARLYDRLFEVPDPDARDEHFTEFLNPDSLNVRQGVLEPAVRDLEADQRVQFERQGYFWPDPEASRPDALVYNQIVPLRDTWGEDEDGLTQEELARRRRAKEQRKQEQRRRSLDGKTDPAEHLDDAQRDRFDRFHDELGIDREDAATIAGNGALAGFFEQALAHYDAPVPVANWTVNELLGRLQDQTVADLPFGPDAFAELVRLVDTEFISTRGGDAVLDALLEDGGSPERIVDDRGLRQVDDTEALRPTVQSVLDDHPDEVSRYRDGKKGLIGFFMGQVMDATDGAASPELARELLQQELDPSA” was “failed”; that for “PSHSLQAPEVRFSKEMECLQAMGFVNYNANLQALIATDGDTNAAIYKLKSSQGF” was “not failed”.
